Source: paper PMC8417012, “Characterization of Arabidopsis thaliana R2R3 S23 MYB Transcription Factors as Novel Targets of the Ubiquitin Proteasome-Pathway and Regulators of Salt Stress and Abscisic Acid Response” (Frontiers in Plant Science, 2021)

Experiments:
Experiment in all cases: pull-down; His:BPM proteins kept on Ni-NTA agarose beads, incubated with eluted GST-tagged proteins in 0.1 M Tris pH 7.5, 150 mM NaCl, 0.5% NP-40, PMSF, 2 h at 4°C, three washes; blots with anti-GST and anti-His
Settings in all cases: both partners purified
[1] = target: T1, His:BPM5 (Arabidopsis thaliana, UniProt Q1EBV6 1-410)
T1 construct: BPM5, MATH-BTB/POZ protein, Arabidopsis thaliana; cloned into pET21b (NdeI/XhoI); pET21b usually adds a C-terminal His6 tag (surmised); also called His-tagged BPM5; source: E. coli, purified on Ni-NTA agarose beads (remained on the beads)
T1 sequence (looked up): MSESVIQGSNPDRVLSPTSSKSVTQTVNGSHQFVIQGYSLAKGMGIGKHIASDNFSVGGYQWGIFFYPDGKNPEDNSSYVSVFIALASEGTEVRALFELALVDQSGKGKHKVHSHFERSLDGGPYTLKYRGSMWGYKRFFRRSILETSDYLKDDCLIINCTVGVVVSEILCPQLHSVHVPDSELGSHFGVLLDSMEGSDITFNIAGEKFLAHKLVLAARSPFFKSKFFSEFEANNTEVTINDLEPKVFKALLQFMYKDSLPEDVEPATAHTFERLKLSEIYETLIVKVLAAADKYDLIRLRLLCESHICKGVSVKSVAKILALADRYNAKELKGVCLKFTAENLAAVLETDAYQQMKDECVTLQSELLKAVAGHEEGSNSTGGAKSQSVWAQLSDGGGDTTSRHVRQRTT

[2] = target: T2, His:BPM3 (Arabidopsis thaliana, UniProt O22286 1-408)
T2 construct: BPM3, MATH-BTB/POZ protein, Arabidopsis thaliana; cloned into pET21b (NdeI/XhoI); pET21b usually adds a C-terminal His6 tag (surmised); also called His-tagged BPM3; source: E. coli, purified on Ni-NTA agarose beads (remained on the beads)
T2 sequence (looked up): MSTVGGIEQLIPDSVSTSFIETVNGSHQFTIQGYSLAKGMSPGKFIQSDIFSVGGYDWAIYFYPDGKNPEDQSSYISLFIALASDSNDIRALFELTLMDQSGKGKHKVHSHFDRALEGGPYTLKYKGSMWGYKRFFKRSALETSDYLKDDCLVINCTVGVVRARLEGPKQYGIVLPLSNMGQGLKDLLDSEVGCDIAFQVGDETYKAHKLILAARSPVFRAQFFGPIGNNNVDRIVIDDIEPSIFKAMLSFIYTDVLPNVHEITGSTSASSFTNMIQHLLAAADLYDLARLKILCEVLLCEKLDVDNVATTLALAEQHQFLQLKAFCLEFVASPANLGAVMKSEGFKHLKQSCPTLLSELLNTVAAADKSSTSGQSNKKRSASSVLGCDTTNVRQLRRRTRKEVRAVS

[3] = target: T3, His:BPM1 (Arabidopsis thaliana, UniProt Q8L765 1-407)
T3 construct: BPM1, MATH-BTB/POZ protein, Arabidopsis thaliana; cloned into pET21b (NdeI/XhoI); pET21b usually adds a C-terminal His6 tag (surmised); also called His-tagged BPM1; source: E. coli, purified on Ni-NTA agarose beads (remained on the beads)
T3 sequence (looked up): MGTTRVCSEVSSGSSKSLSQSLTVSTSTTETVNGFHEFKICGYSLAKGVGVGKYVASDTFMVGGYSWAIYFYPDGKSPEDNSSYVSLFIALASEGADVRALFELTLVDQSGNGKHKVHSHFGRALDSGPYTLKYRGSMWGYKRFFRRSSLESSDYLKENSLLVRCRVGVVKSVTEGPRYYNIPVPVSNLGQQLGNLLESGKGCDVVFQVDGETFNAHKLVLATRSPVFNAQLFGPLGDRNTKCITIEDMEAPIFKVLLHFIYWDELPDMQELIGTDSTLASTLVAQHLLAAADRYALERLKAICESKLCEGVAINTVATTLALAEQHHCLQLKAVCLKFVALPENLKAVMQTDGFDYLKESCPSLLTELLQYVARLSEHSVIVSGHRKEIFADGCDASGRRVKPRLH

Measured: binding result

B1: GST:MYB1 (natural protein)
chain: not shown
notes: MYB1, Arabidopsis thaliana, At3g09230, 393 AA; cDNA; GST fusion ~69.7 kDa; Two GST constructs of MYB1 are described (pDEST15 by Gateway; pHB2-GST from the clone DKLAT3G09230); also called GST-tagged MYB1; source: E. coli, purified (glutathione agarose beads), eluted; not shown: GST, N-terminal, kept
binds: [1] | [2] | [3]

B2: GST:MYB25 (natural protein)
chain: not shown
notes: MYB25, Arabidopsis thaliana, At2g39880, 367 AA; cDNA in pDEST15; GST fusion ~67.8 kDa; also called GST-tagged MYB25; source: E. coli, purified (glutathione agarose beads), eluted; not shown: GST, N-terminal, kept
binds: [1] | [2] | [3]
